Data on 41 sequences can be found in the nanobody polyreactivity screen of Harvey et al. (2022).

The nature of the series: yeast display, Sf9 membrane polyspecificity reagent, FACS + sequencing; frameworks hold sequencing errors. The method in brief:
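Nanobodies from a synthetic yeast display library (Saccharomyces cerevisiae BJ5465), induced 36–48 hours with galactose, were stained 1 hour at 4 °C with 10% biotinylated, detergent-solubilized Sf9 membrane reagent, enriched on streptavidin microbeads, then FACS-sorted. Anti-HA (expression) and streptavidin (reagent binding) fluorescence set low and high (top ~1%) gates. Polyreactivity labels come from the gate of origin. Genes were colony-PCR amplified, MiSeq 2 × 250 sequenced and filtered by CDR length.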
Consider “QVQLVESGGGLVQAGGILRLSCAAPGSTFRKCAMGWYRQAPGKERELVAAISRGGTSTYYADSVKGRFTISRDNAKNTVYLQMNSLKPEDTAVYSCRYFRYSYGTKYDYWGQGTQVTVSS”, for which the “polyreactivity (PSR sort gate)” value is given as “high polyreactivity”.

As for “QVQLVESGGGLVQAGGSLRLSCAASGSTLRDYVMGWYRQAPGKERELVAAITSRVDDTYYADSVKGRFTISRDNAKNTVYLQMNSLKPEDTAVYYCAKRYGRFYHYDYWGQGTQVTVSS”, the “polyreactivity (PSR sort gate)” value is on record as “low polyreactivity”. Then “QVQLVESGGGLVQAGGSLRLSCAASGSTFTLYAMGWYRQAPGKERELVAAITWRGGSTFYADSVKGRFTISRDNAKNTVYLQMNSLKPEDTAVYYCAADYYSYVVGRIDYWGQGTQVTVSS”, with “high polyreactivity”; and “QVQLVESGGGLVQAGGSLRLSCASSGITLRYYAMGWYRQAPGKERELVAAISSGGRTKYADSVKGRFTISRDNAKNTVYLQMNSLKPENTAVSYCGARKPYVTHTIDVLQAHDYWGQGTQVTVSS”, with “high polyreactivity”; and “QVQLVESGGGLVQAGGSLRLSCAASGYIFPTNAMGWYRPATRKERELLAVITSGGSTYYADSVKGRFTISRDNAKNTVYLLMNSLKPDDTAVYYCAARYQGRYGIYRVLYGYWGQGTQVTVSS”, with “high polyreactivity”. For “QVHLVESGGGLVQAGGSLRISCAASGLIFPDYTMGWYRPAPGKESELVAVITDGDSTYYADSVKGRFTISRDNAKNTVYLQMNSLKPEDTAVYYCASELDGSKYTLDYWGQGTQVTVSS”, the “polyreactivity (PSR sort gate)” value is given as “low polyreactivity”. Consider “QVQLVESGGGLVQAGGSLRLSCAASGITFQYNAMGWYRQAPGKERELVATIRRGGITKYADSVKGRFTISRDNAKNTVSLQMNSLKPEDSAVYYCAADFWYYQYPYGGGGYWGQGTQVTVSS”, for which the “polyreactivity (PSR sort gate)” value is on record as “low polyreactivity”. Regarding “QVQLVESGGGLVQAGGSLRLSCAASGSIFFWYTMGWYRQAPGKERDLVATITGSGSSTTYADSVKGRFTISRDNAKNTVYLQMNSLKPEDTAVYSCAAADIIDHSFPYDYWGQGTQVTVSS”, the “polyreactivity (PSR sort gate)” value is given as “low polyreactivity”.

As to “QVQLVESAGGLVQAGASLRLSCAASGRIFVRNAMGWYRQAPGKEREMVADITNGGSTNYADSVKGRFTISRDNAKNTVYLQKNRLNPEDTAVYYCNADGFVYDLRARPGWVDYWGQGTQVTVSS”, the “polyreactivity (PSR sort gate)” value is on record as “low polyreactivity”.

With “QVQLVESGGGLVQAGGSLRLSCAASGSIFYRYVMGWYRQAPGKERELVAAITSTGSTYYADSVKGRFTISRDNAKNTVYLQMNSLKPEDTAVYYCNTLYARPLRDSYGYWGQGTQVTVSS”, the “polyreactivity (PSR sort gate)” value was “high polyreactivity”. Then “QVQLVESGGGLVQAGGSLRLSCAASGRIFSTYVMGWYRQAPGKERELVAAITRGGSTNYADSVKGRFTISRDNAKNTVYLQMNSLKPEDTAVYYCNAQRRGTYYWGQATQVTVSS”, with “high polyreactivity”; and “QVQLVESGVGLVQAGGSLRLSCAASGSIFQDNAMGWYRQAPGKERELVAAISSGDSTYYADSVKGRFTISRDNAKNTVYLQMNSLKPEDTAVYYCAKVPSRWSRQDKAQFDYWGQGTQVTVSS”, with “low polyreactivity”; and “QVQLVESGGGLVQAGGSLRLSCAASGFTFEENAMGWYRQAPGKERELVAAINWSGGNTYYADSVKGRFTISRDNAKNTVYLQMNSLKPEDTAVYYCAAEYRSWSWRMDYWGQGTQVTVSS”, with “high polyreactivity”.

“QVQLVESGGGLVQAGGSLRLSCAASGRTFYAYDMGWYRQAPGKERELVAAINSGDRTNYADSVKGRFTISRDNAKNTDYLQMNSLKPEDTAVYYCAADWYTPQGVGLDYWGQGTQVTVSS”: the “polyreactivity (PSR sort gate)” value was “low polyreactivity”. Then “QVQLVESGGGLVQAGGSLRISCAASGITLAKNAMGWYRQAPGKETELVAAISRRGGNTYYADSVKGRFTISRDNAKNTVYLQMNSLKPEDTAVYYCAVDYRSTGLGYWGQGTQVTVSS”, with “high polyreactivity”; and “QVQLVESGGGLVQAGGSLRLSCAASGSTFDTYAMGWYRQAPGKERELVAAISYRGGNTYYADSVKGRFTISRDNAKNTVYLQMNSLKPEDTAVYYCAASYFDPASIPVAFNYWGQGTQVTVSS”, with “low polyreactivity”.

For the sequence “QVQLVESGGGLVQAGGSLRLSCAASGSTFRYYAMGWYRQAPGKERELVAVIRNSGGSTYYADSVKGRFTISRDNAKNTVYLQKNSLKREDTAVYYCAARLYTFHRDYWGQGTQVTVSS”, the “polyreactivity (PSR sort gate)” value is reported as “low polyreactivity”. With “QVQLVESGGGLVQAGGSLRLSCAASGSIFDDYAMGWYRQAPGKERELVAAMSWSGGRTYYADSVKGRFTISRDYAKNTVYLQMNSLNPEDTAVYYCAATTGVRSRRYYYWGQGTLVTVSS”, the “polyreactivity (PSR sort gate)” value is given as “low polyreactivity”. Then “QVQLVESGGGLVQAGGSLRLSCAASGFTFDFYAMGWYRQAPGKERELVASIRWSGGSTYYADSVKGRFTISRDNAKNTVYLQMNSLKPEDTAVYYCAKSIASAAYDSWGQGTQVTVSS”, with “low polyreactivity”; and “QVQLVESVGGLVQAGGSLRLSCAASGSTFKAYAVGWYRQAPGKEGELVAAITKSGGRTYYADSVKGRFTISLDNAKNTVYLQMNSLKPEDTAVYYCAAVFRPDSSAFRYYYWGQGTQVTVSS”, with “high polyreactivity”. As for “QVQILESGGGLVQAEGSIRLSCDASGRTFRPYAMGWSRQAPGKDRELVAVISYSGVSTYYADSVKGRFTISRDTEQNNVYLLLNSQIPEDTAVYYCLIRFRKTHYDYWGQGSQVTVSS”, the “polyreactivity (PSR sort gate)” value is on record as “high polyreactivity”. Consider “QFQLVESGVGLVQAGGSLRLSCAASGFTFWYYAMGWYRQAPGKERELVARITSRAADTYADSVKGRFTISRDNAKNTVYLQMNSLKPEDTAVYYCNAEFGRARDDDYSGQGTQVTVSS”, for which the “polyreactivity (PSR sort gate)” value is listed as “low polyreactivity”. Then “QVQLVESGGRLVQAGGSLRLRCAASGRIIAYYAMGWYRQAPGKERELVAAISRSGGSTYYADSVKGRFTISRDTAQNYVYLQMNSLKPEDTAVYYCAASLIVPYATMNYWGQGTQVTVSS”, with “high polyreactivity”. Then “QVQLVESGGCLVQAGGSLRLICAASGRTFIAKAMGWYRQAPGKERELVAVITLNGGSTYYADSVKGRFTISRDNAKSTVYLQMNSLKPEDTAVYYCAAGRYYNLRATHGYWGQGTQVTVSS”, with “low polyreactivity”. For “QVQLVESGGGLVQAGGSLRLSCAASGSIFAYNTMGWYRQAPGKERELVAAITGRAGSTYYADSVKGRFTISRDNAKNTVYLQMNSLKPEDTAVYYCNAPTWVRGGYDYWGQGTQVTVSS”, the “polyreactivity (PSR sort gate)” value is “high polyreactivity”. With “QVQLVESGGGLVQAGGSLRLTCAASGSTFGDNAMGWYRQAPGKEREFVATISWDTGTTYYADSVKGRFTISRDNAKNTVYLHMNSLKQEDTAVYYCNVQSYAEFGYWGQGTQVTVSS”, the “polyreactivity (PSR sort gate)” value is given as “low polyreactivity”. Then “QVQLVESGGGLVQAGGSLRLSCAASGITFGRNTMGWYRQAPGKERELVAAIDSGGNTYADSVKWRFTISRDNAKNTVYLQMNSLKPEDTAVYYCAADIGSWYDYWGQGTQVTVSS”, with “low polyreactivity”.

In the case of “QVQLVESGGGLVQAGGSLRLSCAASGSTFAYYTMGWYRQAPGKERELVAAISSRGGSTYYADSVKGRFTISRDNAKNTVYLQMNSLKPEDTAVYYCAKSPRVAHYTSAYDYWGQGTQVTVSS”, the “polyreactivity (PSR sort gate)” value is “high polyreactivity”. With “QVQLVESRGGLVQAGGSLRLSCAASGSTFKRYTMGWYRQAPGKESELVAAISTSSGSTYYADCVKGRFTISRDNAKNTVYLQMNSLKPDDSAVYYCAAVRHRQSYPKYNYWGQGTQVTVSS”, the “polyreactivity (PSR sort gate)” value is reported as “high polyreactivity”.

With “QVQLVESGGGLVQAGGSLRLSCAASGNIFSAYALGWYRQAPGKERELVATITSGGITYYADSVKGRFTISRDNAKNTVYLQMNSLNPEDTAVYYCNADHHGQAEYGYWGQGTQVTVSS”, the “polyreactivity (PSR sort gate)” value is reported as “low polyreactivity”.

As for “QVQLVESGGGLVQASGSLRLSCAASGFTFSQYDMGWNRQDHGKERELVAAISWNGGSTYYAESVKGRFTISRDNAKNTVYLQMNSLKPDDTAVYYCNRRWPFVRFYYWGQGTQVTVSS”, the “polyreactivity (PSR sort gate)” value was “high polyreactivity”. Turning to “QVQLVQSGGGLVQAGGSLRLSCAASGITFWYYAMGWYRQAPGKERELVAAITGGSTYYADSVKGRFTISRDNAKNTVYLQMNSLKPEDTAVYYCNADSLFEYLDYDYWGQGTQVTVSS”, the “polyreactivity (PSR sort gate)” value is on record as “low polyreactivity”. Then “QVQLVESGGGLDQAGGSLRLSWAASGSTFTINVMGWYRQAPGKERELVAAINGGGRTNYADSVKGRFTISRDNAKNTVYLQMNSLKPEDTAVYYCAADGLSNVRQMDFWGQGTQVTVSS”, with “low polyreactivity”; and “QVQLVESGGGLVQAGGSLRLSCAASGSIFYDNAMGWYRQAPGKEREFVAAISTSGGSTYYADSVKGRFTISRDTAKNTVYLQMNSLKPEDTAVYYCAAEWPDLGYWWWYDVGYGYWGQGTQVTVSS”, with “high polyreactivity”. Then “QVQLVESGGGLVQAGGSLRLSCAASGFTLVGYAMGWYRQAPGKERELVAAISSGGRTKYADSVKGRFTFSRDNAKNTVYLQMNSLKPEDTAVYYCKAVFTRGVTQYDHYYWGQGTQVTVSS”, with “high polyreactivity”. Then “QVQLVESGGGLVQAGGSLRLTCAASGFIYADNAMGWDRQAPGQERELVAAISGSGGGTYYADSVKGRFTISRDNAKNTVYLQMNSLKPEDTAVYYCAKSQYHRFDYWGQGTQVTVSS”, with “low polyreactivity”; and “QVQLQERGGGLVQAGGSLRQSCAASGTISDRAGMGWYRQAPAKNAIVATIDRGTNTNYADSVKGRFTISRDNAKNTVYLQMNSLKPEDTAVYNCAAVGRYNIYLDYWGQGTQVTVSS”, with “low polyreactivity”. In the case of “QDQLVESGGGLVQAGGSLRLSCAASGFIFGNYALGWYRQAPGKERELVATITWRGGSTYYADSVKGRFTISRDNAKNTVYLQMNSLKPEDTAVYYCARPYASYSSFYYYGYWGQGTQVTVSS”, the “polyreactivity (PSR sort gate)” value is given as “high polyreactivity”. Then “QVQLVESGGGLVQAGGSLRLSCAASGSTFRYYTMGWYRQAPGKERELVARISRSGGSTYYADSVKGRFTISRDNAKNTVYLQMNSLKPEDTAVYYCAALYYVKPGQRYDYWGQGTQVTVSS”, with “high polyreactivity”.

On to “QLQLVESGGGLVQAGGSLRLSSAASGITLYQYAMGWYRQSPGKERELVAAISSSGGSTYYADSVKGRFTISRDNAKNTVYLQMNSLKPEETAVYYCAAADRFWYGYYQYDYWGQGTQVTVSS”, for which the “polyreactivity (PSR sort gate)” value is “high polyreactivity”. On to “QVLLVESGGGLVHAGGSLRVSCASSGFTFKENAMGWYRQAPGKERELVAAISSTGGSTYYADSVKGRFTISRDNAKNTVFLLMNSLKPEDTAVYYCAASTYWYDGDYWGQGTQVTVSS”, for which the “polyreactivity (PSR sort gate)” value is reported as “high polyreactivity”.
